In publication PMC9278964:
pEC50: −log10 of the molar value. Where two headings read alike, the source gives them in different places.

Legend:
[1] = target: biotinylated PD-L1 (Homo sapiens (assumed)) (UniProt Q9NZQ7); test: ELISA
[2] = target: biotinylated PD-L1 (Homo sapiens (assumed)) (UniProt Q9NZQ7); test: ELISA; remark: listed apart in the source

UniProt Q9NZQ7, sequence (Q9NZQ7 19-290): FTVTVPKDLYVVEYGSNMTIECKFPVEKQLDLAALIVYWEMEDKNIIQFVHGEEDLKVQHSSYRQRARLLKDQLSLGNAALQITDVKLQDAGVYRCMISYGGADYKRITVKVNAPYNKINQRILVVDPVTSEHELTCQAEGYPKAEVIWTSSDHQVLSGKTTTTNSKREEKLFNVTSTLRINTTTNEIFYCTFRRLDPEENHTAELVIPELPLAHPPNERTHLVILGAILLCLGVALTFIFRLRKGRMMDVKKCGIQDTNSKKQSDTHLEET

Q: Which results are given for avelumab (antibody)?
A: pEC50 [1]: 10.01; pEC50 [2]: 10.82
